From US20230227508A1, “SPLIT INTEIN-BASED SELECTION FOR PEPTIDE BINDERS” (priority 2020, published 2023)

Target: Expi293F human cell-derived and purified SARS-CoV-2 RBD (RBD296-531) (SARS-CoV-2), P0DTC2

## GVCKYGEWCEIVEI (modifications not checked) [AMK-1057 (purified, PapB-modified 14 aa thioether-cyclized peptide)]
  Kd: 990 nM
